Test results as given in PMC10782944 (Science immunology, 2023).

Legend:
Assay in all cases: SPR
PHOX2B/HLA-A*24:02/β2m = PHOX2B/HLA-A*24:02/β2m (Homo sapiens, HLA-A*24:02, strain)
[1] = molecular target: CNGB3 peptide/HLA-A*24:02 (Homo sapiens, HLA-A*24:02, strain)
ATG2A/HLA-A*24:02 = ATG2A/HLA-A*24:02 (Homo sapiens, HLA-A*24:02, strain)
GLB1 peptide/HLA-A*24:02 = GLB1 peptide/HLA-A*24:02 (Homo sapiens, HLA-A*24:02, strain)

B1: peptide-centric CAR (PC-CAR) 10LH, single-chain fragment variable (scFv) (scFv, V domains shown)
V domain 1: EVQLLESGGGLVQPGGSLRLSCAASGFTFDSYAMSWVRQAPGKGLEWVSAISGYGGSTYYADSVKGRFTISRDNSKNTLYLQMNSLRAEDTAVYYCAKYTYFLDAFDIWGQGTMVTVSS
V domain 2: QSVLTQPPSVSVSPGQTASITCSGDSLGNKYACWYQQKPGQSPVLVIYQDSKRPSGIPERFSGSNSGNTATLTISGTQAMDEADYYCQAWDSSRGYTVVFGTGTKVTVS
- Kd (PHOX2B/HLA-A*24:02/β2m): 0.011 µM
- binding result [1]: binds
- Kd (ATG2A/HLA-A*24:02): 1 µM
- binding result (GLB1 peptide/HLA-A*24:02): binds
